Substitutions are numbered along the chain they refer to.
B1: ALT01M1: herbicide tolerant protein, SEQ ID NO: 7; ALT01 with glycine to alanine at position 176 (protein)
chain: METDKKTGTSRRSFVKAAGTGAIGIATLPLSTATAFAETDNVELAQSKRKVVLAEQGSFYIGGRTVTGPGKFDPSKPVIPYSNEGATFYINQMYVNFQAPVRPRGLPLVFWHGGGLTGHIWESTPDGRPGFQTLFVQDRHTVYTIDQPGRGRGNIPTFNGPFGQLEEESIVNTVTANSSKEGAWVRDRLGPAPGQFFENSQFPRGYEDNYFKEMGFSPSISSDEIVDAVVKLVTHIGPCVLVTHSASGVLGMRVATHAKNVRGIVAYEPATSIFPKGKVPEIPPLADKKSQIFPPFEIQESYFKKLAKIPIQFVFGDNIPKNPKSAYWFLDWWRVTRYAHSLSLEAINKLGGQASLLDLPTAGLRGNTHFPFTDRNNVQVASLLSDFLGKHGLDQNES
modifications: the amino acid sequence of the herbicide tolerant protein ALT01M1
B2: ALT01M3: herbicide tolerant protein, SEQ ID NO: 15; ALT01 mutated at positions 80, 81, 176, 178 and 182 (protein)
chain: B1 chain with P80R, Y81A, S178V, G182R
modifications: the amino acid sequence of the herbicide tolerant protein ALT01M3
B3: ALT01M2: herbicide tolerant protein, SEQ ID NO: 11; ALT01 with serine to valine at position 178 (protein)
chain: B1 chain with A176G, S178V
modifications: the amino acid sequence of the herbicide tolerant protein ALT01M2
B4: ALT02M1-02: nucleotide sequence SEQ ID NO: 26 encoding ALT02M1, based on maize codon usage bias (nucleic acid)
DNA: ATGGAGACTGATAACGTGGAGCTGGCGCAGAGCAAGAGGAAGGTGGTTCTGGCTGAGCAGGGGTCGTTCTACATTGGGGGGCGGACTGTGACCGGGCCCGGCAAGTTCGACCCATCGAAGCCTGTCATTCCGTACTCTAACGAGGGCGCTACGTTCTACATCAACCAGATGTACGTGAATTTCCAGGCTCCCGTCCGCCCAAGGGGCCTCCCACTGGTGTTCTGGCACGGCGGGGGCCTGACAGGCCATATCTGGGAGTCCACTCCAGATGGCCGCCCAGGGTTCCAGACACTCTTCGTTCAGGACAGGCACACAGTGTACACTATTGATCAGCCAGGGAGGGGCAGGGGGAACATCCCTACCTTCAATGGCCCATTCGGGCAGCTGGAGGAGGAGTCCATCGTGAACACCGTCACGGCGAATTCCAGCAAGGAGGGGGCTTGGGTCAGGGACCGGCTCGGCCCGGCCCCAGGGCAGTTCTTCGAGAACTCTCAGTTCCCCCGGGGCTACGAGGATAATTACTTCAAGGAGATGGGCTTCTCACCATCCATCTCGTCTGACGAGATTGTCGATGCCGTGGTCAAGCTCGTTACCCACATCGGCCCTTGCGTTCTGGTGACGCATAGCGCTTCGGGCGTCCTCGGGATGAGGGTTGCTACACATGCGAAGAACGTTCGCGGCATCGTGGCTTACGAGCCGGCCACTTCCATTTTCCCCAAGGGCAAGGTGCCAGAGATCCCACCACTGGCCGACAAGAAGTCACAGATCTTCCCACCTTTCGAGATTCAGGAGTCCTACTTCAAGAAGCTCGCTAAGATCCCCATTCAGTTCGTGTTCGGCGACAACATTCCTAAGAATCCGAAGAGCGCGTACTGGTTCCTGGATTGGTGGCGCGTCACGCGCTACGCGCACTCTCTCTCACTGGAGGCTATCAACAAGCTCGGGGGCCAGGCCTCGCTCCTGGACCTCCCTACCGCTGGCCTGAGGGGGAACACCCATTTCCCGTTCACGGATCGGAACAATGTCCAGGTTGCGTCCCTCCTGAGCGATTTCCTCGGCAAGCACGGGCTGGATCAGAATGAGTCTAAGCTCGCTGCGGCGCTGGAGTGA
modifications: the ALT02M1-02 nucleotide sequence encoding the amino acid sequence corresponding to the herbicide tolerant protein ALT02M1 and based on the maize codon usage bias
B5: ALT02M2-02: nucleotide sequence SEQ ID NO: 30 encoding ALT02M2, based on maize codon usage bias (nucleic acid)
DNA: B4 DNA with C419G, G420C, T424G, C425T, C426G
modifications: the ALT02M2-02 nucleotide sequence encoding the amino acid sequence corresponding to the herbicide tolerant protein ALT02M2 and based on the maize codon usage bias
B6: ALT02-02: nucleotide sequence SEQ ID NO: 22 encoding ALT02, based on maize codon usage bias (nucleic acid)
DNA: B4 DNA with C419G, G420C
modifications: the ALT02-02 nucleotide sequence encoding the amino acid sequence corresponding to the herbicide tolerant protein ALT02 and based on the maize codon usage bias
B7: ALT02M3-02: nucleotide sequence SEQ ID NO: 34 encoding ALT02M3, based on maize codon usage bias (nucleic acid)
DNA: B4 DNA with C131G, T133G, A134C, C135G, T424G, C425T, C426G, G436C
modifications: the ALT02M3-02 nucleotide sequence encoding the amino acid sequence corresponding to the herbicide tolerant protein ALT02M3 and based on the maize codon usage bias

Experiments:
[1] = Degradation of sulfometuron-methyl by purified herbicide tolerant proteins (enzymatic activity, HPLC); assay type: biochemical; conditions: 0.2 μg enzyme, 0.2 mM substrate, pH 7.0, 30° C., 20 min
Procedure: (§1) Each reaction was timed beginning with the addition of reactive enzyme, and was terminated with 1 mL of dichloromethane. The organic phase after delamination was dehydrated with anhydrous sodium sulfate.
(§2) The above dehydrated reaction solution was blown dry with nitrogen and filtered by adding 1 mL of methanol, and 20 μL of the filtrate was subjected to liquid chromatography-mass spectrometry (LC-MS). High performance liquid chromatography (HPLC) conditions were as follows: mobile phase being methanol:water (80:20, V/V), Zorbax XDB-C18 chromatographic column (3.5 μm, 2.1×50 mm, Agilent, USA), column temperature being room temperature, UV detector, with a detection wavelength of 255 nm, a sample injection volume of 20 μL, and a flow rate of 0.25 mL/min. The primary ion mass spectrometry conditions were as follows: ion detection mode being multi-reactive ion detection; ion polarity being negative ion; ionization mode being electrospray ionization; a capillary voltage of 4000 volts; a dry gas temperature of 330° C., a flow rate of 10 L/min, an atomizing gas pressure of 35 psi, a collision voltage of 135 volts; and a mass scan range of 300-500 m/z. The secondary ion mass spectrometry conditions were as follows: a collision voltage of 90 volts; a mass scanning range of 30-400 m/z, and other conditions being the same as those of the primary ion mass spectrometry. It was identified by LC-MS that the metabolite of thifensulfuron-methyl was thiophene sulfonic acid, and the metabolite of metsulfuron-methyl, chlorimuron-ethyl, bensulfuron-methyl, sulfometuron-methyl or tribenuron-methyl was its corresponding sulfonic acid. The amount of the generated thiophene sulfonic acid (metabolite) was detected using high performance liquid chromatography (HPLC).

[2] = assay type: biochemical; conditions: for specific enzyme activity, bensulfuron-methyl / specific enzyme activity, chlorimuron-ethyl / specific enzyme activity, metsulfuron-methyl / specific enzyme activity, thifensulfuron-methyl / specific enzyme activity, tribenuron-methyl: 0.2 μg enzyme, 0.2 mM substrate, pH 7.0, 30° C., 20 min
Procedure: as §1, §2

maize plants = assay: Herbicide tolerance of transgenic maize T1 plants (spraying, damage degree); assay type: in vivo; conditions: sprayed with tribenuron-methyl 144 g ai/ha, eight-fold field concentration
Procedure: The degree of damage caused by the herbicide was measured for each plant according to the plant growth status 3 days after spraying (3 DAT), 7 days after spraying (7 DAT), 14 days after spraying (14 DAT) and 21 days after spraying (21 DAT): a growth status equivalent to that of the untreated plants is defined as having a damage degree of 0%; the case where leaves are locally chlorotic and yellow but the normal plant growth is substantially not affected is defined as having a damage degree of 50%; and the case where the whole plant is purple and dying is defined as having a damage degree of 100%. The maize plants into which the ALT02M1-02 nucleotide sequence was introduced were of three strains in total (S15, S16 and S17), the maize plants into which the ALT02M2-02 nucleotide sequence was introduced were of three strains in total (S18, S19 and S20), the maize plants into which the ALT02M3-02 nucleotide sequence was introduced were of three strains in total (S21, S22 and S23), the maize plants into which the ALT02-02 nucleotide sequence was introduced were of three strains in total (S24, S25 and S26), the control maize plants were of two strains in total (S27 and S28), and the wild-type maize plants were of one strain in total (CK2); and 10-15 plants were selected from each strain and tested.

| Molecule | specific enzyme activity, sulfometuron-methyl [1] | efficiency of degrading bensulfuron-methyl, fold of ALT01 [2] | efficiency of degrading thifensulfuron-methyl, fold of ALT01 [2] | specific enzyme activity, bensulfuron-methyl [2] | specific enzyme activity, chlorimuron-ethyl [2] | specific enzyme activity, metsulfuron-methyl [2] | specific enzyme activity, thifensulfuron-methyl [2] | specific enzyme activity, tribenuron-methyl [2] | efficiency of degrading chlorimuron-ethyl, fold of ALT01 [2] | efficiency of degrading metsulfuron-methyl, fold of ALT01 [2] | herbicide tolerance compared with maize plants into which ALT02-02 was introduced (maize plants) | herbicide tolerance imparted to transgenic maize plants (maize plants) |
| --- | --- | --- | --- | --- | --- | --- | --- | --- | --- | --- | --- | --- |
| B1 | 5.4 µmol/min/mg | 2.3 fold | 3.3 fold | 3.9 µmol/min/mg | 10.4 µmol/min/mg | 2.2 µmol/min/mg | 89.9 µmol/min/mg | 3.1 µmol/min/mg |  |  |  |  |
| B2 | 1.1 µmol/min/mg |  |  | 0.68 µmol/min/mg | 38.4 µmol/min/mg | 4.2 µmol/min/mg | 17.8 µmol/min/mg | 3.3 µmol/min/mg | 14.2 fold | 2.1 fold |  |  |
| B3 | 3.5 µmol/min/mg | 1.4 fold | 3.9 fold | 2.4 µmol/min/mg | 9.0 µmol/min/mg | 1.2 µmol/min/mg | 106.0 µmol/min/mg | 10.8 µmol/min/mg |  |  |  |  |
| B4 |  |  |  |  |  |  |  |  |  |  | significantly increased tolerance to benzenesulfonic acid | impart transgenic maize plants with the tolerance to benzenesulfonic acid |
| B5 |  |  |  |  |  |  |  |  |  |  | significantly increased tolerance to benzenesulfonic acid | impart transgenic maize plants with the tolerance to benzenesulfonic acid |
| B6 |  |  |  |  |  |  |  |  |  |  |  | impart transgenic maize plants with the tolerance to benzenesulfonic acid |
| B7 |  |  |  |  |  |  |  |  |  |  | significantly increased tolerance to benzenesulfonic acid | impart transgenic maize plants with the tolerance to benzenesulfonic acid |

From patent US12385058B2, “Herbicide tolerance protein, encoding gene thereof and use thereof” (Beijing Dabeinong Biotechnology Co., Ltd., priority 2018, dated 2025)
